Laboratory results taken from article PMC7137382, “Structure of the Mycobacterium smegmatis α-maltose-1-phosphate synthase GlgM” (Acta Crystallographica. Section F, Structural Biology …, 2020).

Molecular target: the molecule itself
Assay: SEC; Superdex 200 10/300 GL, 50 mM bis-Tris pH 6.0, 5 mM MgCl2, 100 mM NaCl

B1: α-maltose-1-phosphate synthase GlgM from Mycobacterium smegmatis (enzyme, Mycobacterium smegmatis mc2155)
chain: MRVAMMTREYPPEVYGGAGVHVTELVAQLRKLCDVDVHCMGAPRDGAYVAHPDPTLRGANAALTMLSADLNMVNNAEAATVVHSHTWYTGLAGHLASLLYGVPHVLTAHSLEPLRPWKAEQLGGGYQVSSWVERTAVEAADAVIAVSSGMRDDVLRTYPALDPDRVHVVRNGIDTTVWYPAEPGPDESVLAELGVDLNRPIVAFVGRITRQKGVAHLVAAAHRFAPDVQLVLCAGAPDTPQIAEEVSSAVQQLAQARTGVFWVREMLPTHKIREILSAATVFVCPSVYEPLGIVNLEAMACATAVVASDVGGIPEVVADGRTGLLVHYDANDTEAYEARLAEAVNSLVADPDRAREYGVAGRERCIEEFSWAHIAEQTLEIYRKVSA
notes: GlgM (glgM gene, MSMEG_5080) from M. smegmatis mc2155, synthesised with codon usage for E. coli; A TEV cleavage site lies between the N-terminal 6×His tag and the protein; also called M. smegmatis GlgM; source: E. coli BL21 Star, purified (HisTrap FF, imidazole gradient); not shown: 6×His, N-terminal, kept
stoichiometry N: 2
